Assay results: the DeepSol protein solubility set

test: soluble on expression in E. coli; label from the status in PepcDB or PDB records

Sequence	soluble on expression in E. coli
MRLTIPILKEGGMLMKFGFIGAGKVGFSLGKYLADNNQNVVGYYSIINEEAIEAAKFTGSKYYENMEQLVEDSEVLFLTVPDGQIENLWNQLKSSHKNWMAKYNKPLLNNKIVCHCSGALSSDIFSSIAEYESFGYSIHPLFAVSNRYESYKELSDSYFTIEGNIEKINKMKELFESFGNTVCIISKDDKIKYHGAAAIASNLVVGLIGLSEELLKQCGFDEKSAHNALAPIIKGNVKHIVEEGVVEALTGPIERCDVSTVRKHMSVFDKKTNEIYKAVSKEVLEIAKIKNKDRDYSKMEEVLQ	not soluble
SARKKIREYDSKRLLKEHLKRLANIDLQIRSAQVTESTDFTELTNQESWLSSTKLVVKPDMLFGKRGKSGLVALKLDLAEVADFVKARLGTEVEMEGCKAPITTFIVEPFVPHDQEYYLSIVSDRLGCTISFSECGGIEIEENWDKVKTIFLPAEKSMTLEVCAPLIATLPLEVRAKIGNFIMGAFAVFQDLDFSFMEMNPFTLVDGEPFPLDMRGELDDTAAFKNFNKWGDIEFPLPFGRVLSSTENFIHGLDEKTSASLKFTVLNPKGRIWTMVAGGGASVIYADTVGDLGYASELGNYAEYSGAPNEEEVLQYARVVIDCATTDPDGRKRALLIGGGIANFTDVAATFNGIIRALREKETRLKASRMHIYVRRGGPNYQTGLARMRALGEELGVPLEVYGPEATMTGICKRAIDCIMLPDA	not soluble
MRDSIMQMCELCGKLTDKLYKVIIEGSEMNVCKECAKFGKSPKTYSRLGKKTIIGKGTITTNKQVKKPIKRRRDIFDTLPMLREDYGDVIREAREKRGLSIEELAKKLKMKASTLQKFERYELEPNEKEIKILEKELKISLTESIGEETSYYGGRDEDGFTLGDFIKIKK	not soluble
MEYIPDNSDEGRIVAMTLAVALRRALASVLGVSATELGYAVRPVRLDNEQSVLAVQLYDIISGGAGFASSAPLHIEAVLKGMVKQLGCRHCDTACSECLLDSQTRHDHDQLDRKAAQAWLGEDFSHYIGLPEAEKLEHHHHHH	not soluble
MKPVTLYDVAEYAGVSYQTVSRVVNQASHVSAKTREKVEAAMAELNYIPNRVAQQLAGKQSLLIGVATSSLALHAPSQIVAAIKSRADQLGASVVVSMVERSGVEACKAAVHNLLAQRVSGLIINYPLDDQDAIAVEAACTNVPALFLDVSDQTPINSIIFSHEDGTRLGVEHLVALGHQQIALLAGPLSSVSARLRLAGWHKYLTRNQIQPIAEREGDWSAMSGFQQTMQMLNEGIVPTAMLVANDQMALGAMRAITESGLRVGADISVVGYDDTEDSSCYIPPLTTIKQDFRLLGQTSVDRLLQLSQGQAVKGNQLLPVSLVKRKTTLAPNTQTASPRALADSLMQLARQVSRLESGQ	soluble
TITNILLVGVGGQGILLASEILSEAFMLAGFDVKKSEIHGMSQRGGSVVSHVRYGKEVHSPIVPEGEGDILFGFELMETYRYLPLLRKGGTVVANDLRISPPSVLLGQASYPDDLPDRIRALFPDFLLVDGQHLAAEAGNVRAANTVLLGAVAKQLDIPDECWHKALERMVPPKALDVNRKAFQLGRAL	not soluble
MYTAIVNLKTYREATGANFTRFMEKFEPVQGKFELIFSPSLLDLEKAAKCGKFRFFAQHVDAEPYGAYTGHVPMDMMIDLGITGSILNHSERRLPRDTIINTLKKASKLDFTIVLCVENAEEAKYFREYEPDFIAYEPRDLIGGDVSVSTAKPEIIEDIVKIYEGTGTSVLVGAGIKTGEDVRRSIGLGARGILVASGVVKSADPTKSLNSLIELK	not soluble
MQTSDSIVIIPTYNERENIENIIRAVFGLEKTFHILIIEDGSPDGTAAIVKTLQQEFPDRLFMIERKGKLGLGTAYITGFKWALEHSYEYIFEMDADFSHNPNDLPRLYEACAVQGGDVAIGSRYVSGVNVVNWPMGRVLMSYFASKYVRIVTGLPIHDTTAGFKCYRRQVLETIDLDHIRFKGYAFQIEMKFTAYKCGFKIIEVPVIFINRELGTSKMNSSIFGEAVFGVIKLKVNSWFHTFPQKTKMNLEHHHHHH	not soluble
MAHHHHHHMGGPPRKREREGEALKPKSKEEQLPIKNECTLDRREGKQIVAEKWSEVVVDDNESQERSNESVSESQVYDTEEELLAAGEDLSGDALKDFLRKNFVDFIDEKVARVGDLDLMN	not soluble
MASEASVRLGVPPGRLWIQRPGIYEDEEGRTWVTVVVRFNPSRREWARASQGSRYEPSITVHLWQMAVHTRELLSSGQMPFSQLPAVWQLYPRRKYRAADSSFWEIADHGQIDSMEQLVLTYQPERKD	not soluble
MGSDKIHHHHHHMSNTAQLITPSPIGLIADITELFEKTFAHFSRTLKVNADDIPEETMSFHTWSSIDNFPTLIQKYRDEYYGDNDLKPNDKALYSLWSQWYFGLIIPPMMLLLIEYPQTIDTHHKNFKVLFHHSGRPEVVYYQLKWQSQDPGTLLERYYLLLNHHVIPIAEKIESYQGINGRLLWNNIGYLMFWYLGEFKGRLGDDLYQSIINGLFMELSLPNGQDNPLYRTVMLRNGTLQRRSCCQRNKLPGVRSCHDCPLEKPPLNLIS	not soluble
MPTYKLTYFDGRGLAEPARMLFHLGGVPFEDSRIPVDMKTGLIMNPELADVKKKAPFGKYPVLKIDDIEIAQSAAINRYLARQFGFAGKNPIEEAQADSYIDQCQEYNTSFRACMYATLQGKPEEEVQKIREEVYIPAQNKFYEIFSDILNRNKSGFLVGDSLTWADLVIADHLYSLDTMGMLTHEDAWRCETLKKFQEKIYEHPLLKGYIASRPKGAF	not soluble
MGSDKIHHHHHHMIVLSKRELFAMLPSVDEVLSDNRIVEIINEYPRSLVLESVREVIDLKRQFILRLKEDASNSVTIEFGEIIESAIERVKLNYSLSLKKVINATGTVIHTNLGRSLLSEDIKDELWCAASRYSNLEYDLDNGERGSRYSHLTSTIKRLTGAEDVLVVNNNAAAVLLVLSTMAKGGEAIVSRGELVEVGGSFRIPSIMALSGAELVEVGSTNKTHLKDYKEAITEDTNVLMKVHTSNYRIMGFTESVSIEELVNLGKKYKLPVIEDLGSGVFIDLSKYGLSYEPTVLDSIRQGADVVTFSGDKMLGGPQAGIIVGKKEYIEKMKKNQLTRALRVDKLTICALEATLRMYLDETKAIENIPTLKMLTYKIEELEVKANKLFEKITALNLNANINIEDGFSQVGGGSMPLETISTKVISITPEHMNVSSLEKKLRLSEAHIIARVYDNKYVLDVRTIFDDEFDVIVEELRKAFN	not soluble
MAPDDTVNTLFQVYKTISFWKVLKNTLVIEFGRFFPWMGGKRKIYRVCLGMEIGEKTAIAYKVMPDLFFPEKILIGENSIIGYHTTILTHEYLLSEYRVGEVVIGRDVMVGANVTILPGTVIGDGAVIAAGAVVSVDVPAGSFAYGNPLIIKEKATLTLEHHHHHH	soluble
ELQAIHEKVKTEHAALSTEVVHLRQRTEELLRCNEQQAAELETCKEQLFQSNMERKELHNTVMDLRGNIRVFCRIRPPLESEENRMCCTWTYHDESTVELQSIDAQAKSKMGQQIFSFDQVFHPLSSQSDIFEMVSPLIQSALDGYNICIFAYGQTGSGKTYTMDGVPESVGVIPRTVDLLFDSIRGYRNLGWEYEIKATFLEIYNEVLYDLLSNEQKDMEIRMAKNNKNDIYVSNITEETVLDPNHLRHLMHTAKMNRATASTAGNERSSRSHAVTKLELIGRHAEKQEISVGSINLVDLAGSESPKTSTRMTETKNINRSLSELTNVILALLQKQDHIPYRNSKLTHLLMPSLGGNSKTLMFINVSPFQDCFQESVKSLRFAASVNSCKMTKAKRNRYLNNSVANSSTQSNNSGSFDK	soluble
MGSDKIHHHHHHMSDTLTDSRIVYFYEAVRCGTIRAAADWLDVAPSAVSRQIGLLEKELDATLVERHARGVTPTDAGRCVIEYFREQLAHRDDLISRLQELRGLKTGQVSLVLGEGFVSDLLAGPMQQFCRQFPGIRVNLDVGSTNDVIRKISNDEGEIGLVYNPPAEPKLVSRASKRQPMMAIVGPDFPRRSHKVLTVQQLATYPMAATHPSYGTRQMMEAVEYAERVRLAPIITTNSFAILKEFVKSGLGISVMPAFAVAAELQAKELFAIEIAHPILENAEAHMVTRVGRKLSVAANKMLQMMTGQMRAFR	not soluble
MESCITVIGERDVVLGFRLLGIQHTIIAEGKDLLKKFLEVFQNPQCNIIIVSENVKNMMDKRTLRSVEISSKPLVVFIPLPGVREEETIEEMAKRILGIDIGNVLEHHHHHH	not soluble
MSLGAMKRLALLVPERANIASLENARQGFLAANGFLRERGCAPRFDVRLVAATPQVRLDHGRITVQADTVLEAVGEVDLCVVPPIQGDPQPALQENGALIDWLAGYYKNGGEVASLCVGAALLAAGGVLDGQRAVVHWAAQSDFGRLFPAVRWVSDRVVLEANGIYTSGGAFSAAHLVLHLVDKYTDRETAIWCAKLFQLDWSREGHHHHHH	soluble
MELLLYSLDNEGPIRFIQITDTHLVEAADGHLLGLETQNSLEHVLSSVQSENDQFDFFVVSGDISQDGSLSSYQRLHESLAPFNVPSFWFPGNHDEMSNMKVVCQDTEHLVNIIRTPHWQLVLLNSQVEGAVFGNLGDDQFELLERALTERPDLHTLISLHHHPIPMESNWMDKIGVKNGDKLMAMARKYPKVKCILWGHVHQDSDRMVDGIRMLSTPSTCVQFMPKSKDFNIDMIAPGYRRLQLNPDGSIETEMSRVEGIEFEVDLSVKGY	soluble
MKIGVFDSGVGGFSVLKSLLKARLFDEIIYYGDSARVPYGTKDPTTIKQFGLEALDFFKPHEIELLIVACNTASALALEEMQKYSKIPIVGVIEPSILAIKRQVEDKNAPILVLGTKATIQSNAYDNALKQQGYLNISHLATSLFVPLIEESILEGELLETCMHYYFTPLEILPEVIILGCTHFPLIAQKIEGYFMGHFALPTPPLLIHSGDAIVEYLQQKYALKNNACTFPKVEFHASGDVIWLERQAKEWLKL	soluble
MAHHHHHHMQLPRKRGTQRRRAHRRNWRDCTSLCTMRGGAMRWNFRTAWSERKQGTGMGVHEGKPEQSWTYKKADDAIKKNDAVQQFGAAPPVLMVLASDKGWPYSWNTIQDLPKDFFVNCEVDRAWQIVKGDLTAWFSPHGGTDFTPKRRVLIGTPGIGKSVAAGSYLLY	not soluble
MIMKVGIMSDTHDNLSAIRLAVEFFNREGVNLVLHAGDFVAPFVAKELSNLKAPLKGVFGNNDGEREGLREKLGIKDDILTLNLDGLKVVMLHGTDERVVEAFAKSQLYDIVIRGHTHKYGIQEVGRTIVVNPGEVCGYLTGIKSVALLNTTEREVRIINLKTGEILGIISLLEHHHHHH	not soluble
MHHHHHHSSGVDLGTENLYFQSMMQKLVVTRLSPNFREAVTLSRDCPVPLPGDGDLLVRNRFVGVNASDINYSAGRYDPSVKPPFDIGFEGIGEVVALGLSASARYTVGQAVAYMAPGSFAEYTVVPASIATPVPSVKPEYLTLLVSGTTAYISLKELGGLSEGKKVLVTAAAGGTGQFAMQLSKKAKCHVIGTCSSDEKSAFLKSLGCDRPINYKTEPVGTVLKQEYPEGVDVVYESVGGAMFDLAVDALATKGRLIVIGFISGYQTPTGLSPVKAGTLPAKLLKKSASVQGFFLNHYLSKYQAAMSHLLEMCVSGDLVCEVDLGDLSPEGRFTGLESIFRAVNYMYMGKNTGKIVVELPH	soluble
MSLYTVLVADDKEVFRRKVKRMPYFQDHKEKFAIRYEAQNGLEALEILRSHDVDMVLTDIRMPFIDGIELLKHVNAENLCKCVILLSEFAEFNYAKAGILNGAFDYVLKPVDDEKIQETFDRAYNYLTTINAAVNAQTQRIETLARLMLAGDRMNALAYAKHIGAGLQAHGAITGERIVQANDTLAQLNKYILQKRPFLHYYLPFDELCCLDAKKTTPGKISDAFNACVSTVMDAIEPFCVQSTNELVGRTCQLVLEKLDSKVSLHGIADNLYVNPKYLGALFKKETGRSFVDYVTFARMERAKMLLRNPTLKVYEVAAQLGYDDVDYFSKVFKKLTAESPSIYREMRKEGHHHHHH	soluble
